Legend:
Assay in all cases: fluorescence anisotropy; FA: 50 mM HEPES-Na pH 7.4, 150 mM NaCl, 1 mM DTT, 20 C, 500 pM FM-DNA, Hill fit; EMSA: 5 nM FM-DNA, 8% PAGE, 0.33x TBE
TFAM = target: T1, TFAM (UniProt Q00059 43-246); settings: protein: recombinant, label: 5'-6FAM
T1 sequence: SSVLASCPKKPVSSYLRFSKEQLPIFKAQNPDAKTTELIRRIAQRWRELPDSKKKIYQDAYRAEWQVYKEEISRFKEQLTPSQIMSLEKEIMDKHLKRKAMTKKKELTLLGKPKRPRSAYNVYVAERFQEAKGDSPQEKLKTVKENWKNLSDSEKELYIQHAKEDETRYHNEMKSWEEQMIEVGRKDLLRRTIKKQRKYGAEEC

TFAM HMG Box A = target: T2, TFAM HMG Box A (UniProt Q00059 50-118); settings: protein: recombinant, label: 5'-6FAM
T2 sequence: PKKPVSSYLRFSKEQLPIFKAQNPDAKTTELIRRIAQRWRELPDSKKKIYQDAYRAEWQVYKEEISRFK

TFAM HMG Box B = target: T3, TFAM HMG Box B (UniProt Q00059 155-219); settings: protein: recombinant; label: 5'-6FAM; G-quadruplex possible (previous studies)
T3 sequence: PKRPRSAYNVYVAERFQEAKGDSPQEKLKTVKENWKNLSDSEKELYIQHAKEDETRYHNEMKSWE

[1] = G-quadruplex possible (previous studies)

B1: CpG-A (PS) (XNA)
DNA: GGGGACGACGTCGTGGGGGGG
modifications: phosphorothioate (positions in Fig 1A)
TFAM; [1]
  Kd: 1.83 ± 0.07 nM
TFAM HMG Box A; [1]
  Kd: 71.2 ± 38 nM
TFAM HMG Box B
  Kd: 231 ± 30 nM

B2: CpG-B (PS) (XNA)
DNA: TCGTCGTTTTGTCGTTTTGTCGTT
modifications: phosphorothioate (positions in Fig 1A)
TFAM; single-stranded by CD
  Kd: 1.3 ± 0.03 nM
TFAM HMG Box A; single-stranded by CD
  Kd: 10.4 ± 1 nM

B3: CpG-B (PD) (ssDNA)
DNA: TCGTCGTTTTGTCGTTTTGTCGTT
TFAM; single-stranded
  Kd: 4.66 ± 0.2 nM

B4: ssLSP (PS) (XNA)
DNA: TTAACAGTCACCCCCCAACTAACAC
modifications: phosphorothioate (positions in Fig 1A)
TFAM; single-stranded
  Kd: 5.06 ± 0.1 nM

B5: ssLSP (PD) (ssDNA)
DNA: TTAACAGTCACCCCCCAACTAACAC
TFAM; single-stranded
  Kd: 10.2 ± 0.5 nM

From paper PMC4900672, “Mechanism of Mitochondrial Transcription Factor A Attenuation of CpG-Induced Antibody Production”
